Laboratory results from patent US20030219436A1.
Values belong to the molecule of their own block, whether it stands above or below them.

Experiments:
[1] = biological target: ligand(s) that bind to CD83, on mouse cells (PBMC monocytes, lymph node lymphocytes, splenocytes); experiment: flow cytometry on mouse PBMC
[2] = biological target: ligand(s) that bind to CD83, on mouse cells (PBMC monocytes, lymph node lymphocytes, splenocytes); experiment: flow cytometry on mouse splenocytes
[3] = biological target: ligand(s) that bind to CD83, on mouse cells (PBMC monocytes, lymph node lymphocytes, splenocytes); experiment: flow cytometry on mouse lymph node lymphocytes
[4] = biological target: ligand(s) that bind to CD83, on human peripheral blood cells (monocytes, some lymphocytes); experiment: flow cytometry on fresh human PBMC, biotinylated CD83Ig + PE streptavidin

percent of cells bound (monocytes in peripheral blood) [1]: 90%
percent of cells bound (non-T cell population of splenocytes) [2]: 15%
percent of cells bound (lymphocytes from lymph nodes) [3]: < 5%
percent of cells bound (CD3+ cells, lymphocyte gate) [4]: < 1%
percent of cells bound (CD3- cells, lymphocyte gate) [4]: 4%
percent of cells bound (larger cell scatter gate, monocytes) [4]: > 75%
Molecule: human CD83-hIgG1 fusion protein (extracytoplasmic domain of human CD83 with a human IgG1 tail) (Fc fusion)

percent of cells bound (monocytes in peripheral blood) [1]: 90%
percent of cells bound (non-T cell population of splenocytes) [2]: 15%
percent of cells bound (lymphocytes from lymph nodes) [3]: < 5%
B1: human CD83 murine Ig fusion protein (human CD83 extracellular domain upstream of the murine IgG2a Fc domain) (Fc fusion)
chain: MSRGLQLLLLSCAYSLAPATPEVKVACSEDVDLPCTAPWDPQVPYTVSWVKLLEGGEERMETPQEDHLRGQHYHQKGQNGSFDAPNERPYSLKIRNTTSCNSGTYRCTLQDPDGQRNLSGKVILRVTGCPAQRKEETFKKYRAERSEPRGPTIKPCPPCKCPAPNSAGTSSVFIFPPKIKDVLMISLSPIVTCVVVDVSEDDPDVQISWFVNNVEVHTAQTQTHREDYNSTLRVVSALPIQHQDWMSGKEFKCKVNNKDLPAPIERTISKPKGSVRAPQVYVLPPPEEEMTKKQVTLTCMVTDFMPEDIYVEWTNNGKTELNYKNTEPVLDSDGSYFMYSKLRVEKKNWVERNSYSCSVVHEGLHNHHTTKSFSRTPGK
